# Paper PMC3947186 (Structure (London, England : 1993), 2013)
# Read-outs that look alike come from different tables or passages of the source.
# Tests used:
# Experiment in all cases: ITC
# [1] = molecular target: mouse CSL core domain (residues 53-474), wild type (mouse) (UniProt P31266)
# [2] = molecular target: mouse CSL core domain (residues 53-474), wild type (mouse) (UniProt P31266); remark: listed apart in the source
# [3] = molecular target: BTD of mouse CSL (residues 203-393) (mouse) (UniProt P31266)
# [4] = molecular target: mouse CSL core domain (53-474) mutant F261R (mouse) (UniProt P31266)
# [5] = molecular target: mouse CSL core domain (53-474) mutant V263R (mouse) (UniProt P31266)
# [6] = molecular target: mouse CSL core domain (53-474) mutant A284R (mouse) (UniProt P31266)
# [7] = molecular target: mouse CSL core domain (residues 53-474), wild type (mouse) (UniProt P31266); remark: listed apart in the source
# [8] = molecular target: mouse CSL core domain (53-474) mutant Q333R (mouse) (UniProt P31266)
# [9] = molecular target: mouse CSL core domain (residues 53-474), wild type (mouse, UniProt P31266 53-474)
# [10] = molecular target: mouse CSL core domain (residues 53-474), wild type (mouse) (UniProt P31266); remark: listed apart in the source
# mouse CSL core domain (53-474) mutant V263R (mouse), sequence (P31266 53-474 V263R): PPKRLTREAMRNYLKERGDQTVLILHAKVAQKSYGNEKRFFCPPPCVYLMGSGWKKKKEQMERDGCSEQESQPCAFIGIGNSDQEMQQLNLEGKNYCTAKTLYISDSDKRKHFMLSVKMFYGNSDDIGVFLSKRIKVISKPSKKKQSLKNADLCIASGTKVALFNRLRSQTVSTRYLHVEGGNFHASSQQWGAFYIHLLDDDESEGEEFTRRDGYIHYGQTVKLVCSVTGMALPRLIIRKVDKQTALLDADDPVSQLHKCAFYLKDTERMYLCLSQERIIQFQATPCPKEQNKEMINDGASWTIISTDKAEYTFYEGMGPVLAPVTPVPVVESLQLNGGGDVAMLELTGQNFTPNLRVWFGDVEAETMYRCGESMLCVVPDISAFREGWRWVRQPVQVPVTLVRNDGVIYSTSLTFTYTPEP
# mouse CSL core domain (53-474) mutant Q333R (mouse), sequence (P31266 53-474 Q333R): as the sequence (P31266 53-474 V263R) above, with R211V, Q281R counted along it
# mouse CSL core domain (53-474) mutant F261R (mouse), sequence (P31266 53-474 F261R): as the sequence (P31266 53-474 V263R) above, with F209R, R211V counted along it
# mouse CSL core domain (residues 53-474), wild type (mouse), sequence (P31266 53-474): as the sequence (P31266 53-474 V263R) above, with R211V counted along it
# mouse CSL core domain (53-474) mutant A284R (mouse), sequence (P31266 53-474 A284R): as the sequence (P31266 53-474 V263R) above, with R211V, A232R counted along it
# BTD of mouse CSL (residues 203-393) (mouse), sequence (P31266 203-393): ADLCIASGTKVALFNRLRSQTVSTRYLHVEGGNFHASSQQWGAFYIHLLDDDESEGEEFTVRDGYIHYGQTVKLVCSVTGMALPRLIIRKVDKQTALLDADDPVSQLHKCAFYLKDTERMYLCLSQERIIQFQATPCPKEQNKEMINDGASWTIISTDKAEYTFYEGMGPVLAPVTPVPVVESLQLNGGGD
# mouse CSL core domain (residues 53-474), wild type, sequence (P31266 53-474): as the sequence (P31266 53-474 V263R) above, with R211V counted along it
molecule,measurement,setting,value
mouse KyoT2 (residues 184-210) (peptide),Ka,[1],1.1e+08 M⁻¹
same,Kd,[1],11 nM
same,dH,[1],-11 kcal/mol
same,Ka,[2],9.4e+07 M⁻¹
same,Kd,[2],11 nM
same,dH,[2],-14.6 kcal/mol
same,Kd,[3],26 nM
same,dH,[3],-13.6 kcal/mol
same,Ka,[4],340000 M⁻¹
same,Kd,[4],6300 nM
same,dH,[4],-5.6 kcal/mol
same,Ka,[5],3.1e+07 M⁻¹
same,Kd,[5],19 nM
same,dH,[5],-12.9 kcal/mol
same,Kd,[6],7200 nM
same,dH,[6],-10.5 kcal/mol
same,Ka,[7],8.5e+07 M⁻¹
same,Kd,[7],12 nM
same,dH,[7],-15.5 kcal/mol
same,stoichiometry N,[7],1
same,Ka,[8],2e+07 M⁻¹
same,Kd,[8],51 nM
same,dH,[8],-11.7 kcal/mol
KyoT2 KD196AA (in the construct 184-210) (peptide),Ka,[7],1.2e+08 M⁻¹
same,Kd,[7],12 nM
same,dH,[7],-16 kcal/mol
"RAM domain of Notch1, wild type (from UniProt P46531 19-2555) (domain or fragment)",Ka,[7],6.8e+07 M⁻¹
same,Kd,[7],15 nM
same,dH,[7],-18.2 kcal/mol
mouse KyoT2 (residues 184-200) (peptide),Ka,[7],3.1e+07 M⁻¹
same,dH,[7],-13.1 kcal/mol
mouse KyoT2 (residues 182-210) (peptide),Ka,[7],7.1e+07 M⁻¹
same,Kd,[7],15 nM
same,dH,[7],-16 kcal/mol
KyoT2 V186A (in the construct 184-210) (peptide),Kd,[7],69 nM
same,dH,[7],-13.7 kcal/mol
"RAM domain of Notch1, mutant Q1763A (from UniProt P46531 19-2555) (domain or fragment)",Ka,[7],2e+07 M⁻¹
same,Kd,[7],22 nM
same,dH,[7],-7.5 kcal/mol
APVWWPMK [KyoT2 peptide APVWWPMK (residues 188-195)],binding result,[9],binds
VWWP [KyoT2 tetrapeptide VWWP (residues 190-193)],Kd,[10],8000 nM
KAPVWWPMKD [KyoT2 peptide KAPVWWPMKD (residues 187-196)],fold enhancement in binding against the peptide APVWWPMK,[9],~40 fold
